We go through two proteins from article PMC9820243, “Structural and Functional Characterization of a New Bacterial Dipeptidyl Peptidase III Involved in Fruiting Body Formation in Myxobacteria” (International Journal of Molecular Sciences, 2022).

Data set [1] concerns the molecule itself. Put plainly: SEC; HiLoad 16/600 Superdex 200 pg, 20 mM Tris-HCl (pH 7.0) with 0.1 M NaCl, 1 mL/min; mass standards ovalbumin, conalbumin, aldolase, ferritin.
Data set [2] deals with the molecule itself. Description: crystal structure; Se-Met-labelled protein, sitting-drop vapor diffusion at 20 °C, 0.1 M sodium acetate trihydrate pH 4.59, 24% w/v PEG 3350, 0.01 M TCEP; SAD, 1.90 Å; ligand-free, two molecules in the asymmetric unit.

B1: Dipeptidyl peptidase III from Corallococcus sp. EGB (recombinant CoDPP III) (enzyme, UniProt A0A5H1ZR28 1-537, looked up)
chain: RLPDAPTLKRMTARFAPVDVKVDVSKLPDAEKRALAKILQAAKIMDPLFLSQAWAGNPTLLLDLVEDTTPLGKERLHAFLLNKGPWSRLDEAKPFIPGVPPKPDEGNFYPAGATKAEVEAWVKSLPEAQQHAATGFFTTVRKGPDGKFLTVPYSVEYQGELGMAAKLLREAAALTQQSTLKRFLETRAEAFLSNDYYASEVAWMELDASVEPTIGPYEVYEDGWFNYKAAFEAFIGVRDEAETQKLAKFSAELQELENNLPIEPALRNPKLGALAPIRVINSLYSSGDGNRGVQTAAYNLPNDERVAAEKGTKRVMLKNIQEAKFQRVLVPIAKVALPAKDRKDVSFDAFFTHILMHELMHGLGPHNVTVAGKQTTVRQALQASSSAIEEAKADISGLWALQRLVDKGTLDKELQRTMYTTFLASAFRSIRFGIDEAHGKGIALQLNHFLDTGAVKVNADGTFEVVPDKMQASVTSLTNQLMSLQAKGDRAAAEELLAKQGVVRPSVQKVLEKLKNVPVDIEPRYVTAESLVKDFGA
notes: signal peptide in the construct; dipeptidyl peptidase III (CoDPP III) of Corallococcus sp; EGB, open reading frame of 1719 bp encoding 572 amino acids, predicted signal peptide residues 1 to 22; cloned into Nde I and Xho I sites of pET29a(+); The Xho I site of pET29a probably adds Leu-Glu before the His6 tag (surmised); also called native DPP III; source: E. coli BL21(DE3), purified (CM-Sepharose …)
One may read the stoichiometry N as a count of units in the complex or per binding partner. Turning to B1, the “stoichiometry N” value in data set [1] was determined as 2.

B2: Selenomethionine-labelled dipeptidyl peptidase III from Corallococcus sp. EGB (enzyme, UniProt A0A5H1ZR28 1-537, looked up)
chain: RLPDAPTLKRMTARFAPVDVKVDVSKLPDAEKRALAKILQAAKIMDPLFLSQAWAGNPTLLLDLVEDTTPLGKERLHAFLLNKGPWSRLDEAKPFIPGVPPKPDEGNFYPAGATKAEVEAWVKSLPEAQQHAATGFFTTVRKGPDGKFLTVPYSVEYQGELGMAAKLLREAAALTQQSTLKRFLETRAEAFLSNDYYASEVAWMELDASVEPTIGPYEVYEDGWFNYKAAFEAFIGVRDEAETQKLAKFSAELQELENNLPIEPALRNPKLGALAPIRVINSLYSSGDGNRGVQTAAYNLPNDERVAAEKGTKRVMLKNIQEAKFQRVLVPIAKVALPAKDRKDVSFDAFFTHILMHELMHGLGPHNVTVAGKQTTVRQALQASSSAIEEAKADISGLWALQRLVDKGTLDKELQRTMYTTFLASAFRSIRFGIDEAHGKGIALQLNHFLDTGAVKVNADGTFEVVPDKMQASVTSLTNQLMSLQAKGDRAAAEELLAKQGVVRPSVQKVLEKLKNVPVDIEPRYVTAESLVKDFGA
modifications: selenomethionine (Se-Met labelled)
notes: signal peptide in the construct; dipeptidyl peptidase III (CoDPP III) of Corallococcus sp; EGB, same pET29a-Codpp III construct as m1 (572 amino acids, predicted signal peptide residues 1 to 22); the final model lacks 27 amino acids at the N-terminus and 8 (chain A) or 12 (chain B) at the C-terminus; Same construct as m1, expressed in a methionine auxotroph with Se-Met; also called Se-CoDPPIII; …
Consider B2, for which, in data set [2], the binding result is given as “binds”.
